The target in this assay is T1, mouse IgG1 Fc-mature human GDF15 fusion protein (mFc-rhGDF15) (mouse; human).
T1 construct: Made in CHOK1SV cells, purified by Protein A and size exclusion; also called mouse Fc fused to human GDF15
T1 chain: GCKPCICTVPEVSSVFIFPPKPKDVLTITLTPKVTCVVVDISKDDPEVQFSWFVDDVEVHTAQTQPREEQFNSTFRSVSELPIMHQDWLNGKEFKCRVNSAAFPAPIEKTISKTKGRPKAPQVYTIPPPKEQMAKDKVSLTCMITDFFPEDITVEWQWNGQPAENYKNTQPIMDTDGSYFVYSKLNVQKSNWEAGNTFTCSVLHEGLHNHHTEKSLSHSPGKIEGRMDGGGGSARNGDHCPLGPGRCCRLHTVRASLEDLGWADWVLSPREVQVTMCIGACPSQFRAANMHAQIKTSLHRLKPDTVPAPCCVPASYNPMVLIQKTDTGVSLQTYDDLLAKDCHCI
Briefly: SPR Biacore T100, 37 C, antibody from supernatant captured by anti-human IgG Fc, antigen in solution.

This passage reports Kd, koff and kon results from patent US20160083465A1 (AVEO PHARMACEUTICALS, published 2016).

In general, Kd refers to the concentration at which binding is half-saturated. A low value points to higher affinity. Broadly, the koff is the first-order rate constant of dissociation. As usually defined, the kon is the second-order rate constant of association. Low readings indicate slower complex formation, high ones faster complex formation.

B1: Hu01G06-105 (antibody, human IgG1, kappa)
heavy: not shown
light: DIQMTQSPSSLSASVGDRVTITCRTSENLHNYLAWYQQKPGKSPKLLIYDAKTLADGVPSRFSGSGSGTDYTLTISSLQPEDFATYYCQHFWSSPYTFGQGTKLEIKRTVAAPSVFIFPPSDEQLKSGTASVVCLLNNFYPREAKVQWKVDNALQSGNSQESVTEQDSKDSTYSLSSTLTLSKADYEKHKVYACEVTHQGLSSPVTKSFNRGEC
notes: Humanized, human IgG1 kappa; tested in supernatant
For the molecule B1, the Kd stood at 0.13 nM, the koff came to 0.00056 s⁻¹ and the kon was 4.3e+06 M⁻¹ s⁻¹.

B2: Hu01G06-102 (antibody, human IgG1, kappa)
heavy: not shown
light: DIQMTQSPSSLSASVGDRVTITCRTSENLHNYLAWYQQKPGKSPKLLVYDAKTLADGVPSRFSGSGSGTDYTLTISSLQPEDFATYYCQHFWSSPYTFGQGTKLEIKRTVAAPSVFIFPPSDEQLKSGTASVVCLLNNFYPREAKVQWKVDNALQSGNSQESVTEQDSKDSTYSLSSTLTLSKADYEKHKVYACEVTHQGLSSPVTKSFNRGEC
notes: as for B1
In turn, B2 had a Kd of 0.11 nM, a koff of 0.00046 s⁻¹ and a kon of 4.4e+06 M⁻¹ s⁻¹.

B3: Hu01G06-104 (antibody, human IgG1, kappa)
heavy: not shown
light: DIQMTQSPSSLSASVGDRVTITCRTSENLHNYLAWYQQKPGKSPKLLVYDAKTLADGVPSRFSGSGSGTDYTLTISSLQPEDFATYYCQHFWSSPYTFGQGTKLEIKRTVAAPSVFIFPPSDEQLKSGTASVVCLLNNFYPREAKVQWKVDNALQSGNSQESVTEQDSKDSTYSLSSTLTLSKADYEKHKVYACEVTHQGLSSPVTKSFNRGEC
notes: as for B1
Molecule B3 registered a Kd of 0.12 nM, a koff of 0.00052 s⁻¹ and a kon of 4.5e+06 M⁻¹ s⁻¹.

B4: Hu01G06-113 (antibody, human IgG1, kappa)
heavy: not shown
light: DIQMTQSPSSLSASVGDRVTITCRTSENLHNYLAWYQQKPGKAPKLLIYDAKTLADGVPSRFSGSGSGTDYTLTISSLQPEDFATYYCQHFWSSPYTFGQGTKLEIKRTVAAPSVFIFPPSDEQLKSGTASVVCLLNNFYPREAKVQWKVDNALQSGNSQESVTEQDSKDSTYSLSSTLTLSKADYEKHKVYACEVTHQGLSSPVTKSFNRGEC
notes: as for B1
As to B4, binding was characterised by a dissociation constant (Kd) of 0.11 nM, the koff came out at 0.00048 s⁻¹ and the kon stood at 4.5e+06 M⁻¹ s⁻¹.

B5: Hu01G06-112 (antibody, human IgG1, kappa)
heavy: not shown
light: DIQMTQSPSSLSASVGDRVTITCRTSENLHNYLAWYQQKPGKAPKLLIYDAKTLADGVPSRFSGSGSGTDYTLTISSLQPEDFATYYCQHFWSSPYTFGQGTKLEIKRTVAAPSVFIFPPSDEQLKSGTASVVCLLNNFYPREAKVQWKVDNALQSGNSQESVTEQDSKDSTYSLSSTLTLSKADYEKHKVYACEVTHQGLSSPVTKSFNRGEC
notes: as for B1
As to B5, the Kd was found to be 0.12 nM, the koff was 0.00053 s⁻¹ and the kon came to 4.7e+06 M⁻¹ s⁻¹.

B6: Hu01G06-107 (antibody, human IgG1, kappa)
heavy: not shown
light: DIQMTQSPSSLSASVGDRVTITCRTSENLHNYLAWYQQKPGKSPKLLIYDAKTLADGVPSRFSGSGSGTDYTLTISSLQPEDFATYYCQHFWSSPYTFGQGTKLEIKRTVAAPSVFIFPPSDEQLKSGTASVVCLLNNFYPREAKVQWKVDNALQSGNSQESVTEQDSKDSTYSLSSTLTLSKADYEKHKVYACEVTHQGLSSPVTKSFNRGEC
notes: as for B1
Consider B6, for which the affinity, expressed as Kd, was 0.12 nM; the dissociation rate constant (koff) worked out at 0.00047 s⁻¹; the kon was found to be 4.1e+06 M⁻¹ s⁻¹.

B7: Hu01G06-103 (antibody, human IgG1, kappa)
heavy: not shown
light: DIQMTQSPSSLSASVGDRVTITCRTSENLHNYLAWYQQKPGKSPKLLVYDAKTLADGVPSRFSGSGSGTDYTLTISSLQPEDFATYYCQHFWSSPYTFGQGTKLEIKRTVAAPSVFIFPPSDEQLKSGTASVVCLLNNFYPREAKVQWKVDNALQSGNSQESVTEQDSKDSTYSLSSTLTLSKADYEKHKVYACEVTHQGLSSPVTKSFNRGEC
notes: as for B1
The molecule B7 had a Kd of 0.11 nM, a koff of 0.00047 s⁻¹ and a kon of 4.4e+06 M⁻¹ s⁻¹.

B8: Hu01G06-111 (antibody, human IgG1, kappa)
heavy: not shown
light: DIQMTQSPSSLSASVGDRVTITCRTSENLHNYLAWYQQKPGKAPKLLIYDAKTLADGVPSRFSGSGSGTDYTLTISSLQPEDFATYYCQHFWSSPYTFGQGTKLEIKRTVAAPSVFIFPPSDEQLKSGTASVVCLLNNFYPREAKVQWKVDNALQSGNSQESVTEQDSKDSTYSLSSTLTLSKADYEKHKVYACEVTHQGLSSPVTKSFNRGEC
notes: as for B1
For B8, binding was characterised by a dissociation constant (Kd) of 0.16 nM, the koff is 0.00066 s⁻¹ and the kon was 4.3e+06 M⁻¹ s⁻¹.

B9: Hu01G06-109 (antibody, human IgG1, kappa)
heavy: not shown
light: DIQMTQSPSSLSASVGDRVTITCRTSENLHNYLAWYQQKPGKSPKLLIYDAKTLADGVPSRFSGSGSGTDYTLTISSLQPEDFATYYCQHFWSSPYTFGQGTKLEIKRTVAAPSVFIFPPSDEQLKSGTASVVCLLNNFYPREAKVQWKVDNALQSGNSQESVTEQDSKDSTYSLSSTLTLSKADYEKHKVYACEVTHQGLSSPVTKSFNRGEC
notes: as for B1
B9 yielded a Kd of 0.13 nM, a koff of 0.00056 s⁻¹ and a kon of 4.6e+06 M⁻¹ s⁻¹.

B10: Hu01G06-108 (antibody, human IgG1, kappa)
heavy: not shown
light: DIQMTQSPSSLSASVGDRVTITCRTSENLHNYLAWYQQKPGKSPKLLIYDAKTLADGVPSRFSGSGSGTDYTLTISSLQPEDFATYYCQHFWSSPYTFGQGTKLEIKRTVAAPSVFIFPPSDEQLKSGTASVVCLLNNFYPREAKVQWKVDNALQSGNSQESVTEQDSKDSTYSLSSTLTLSKADYEKHKVYACEVTHQGLSSPVTKSFNRGEC
notes: as for B1
In the case of B10, the affinity, expressed as Kd, was 0.12 nM; the koff came to 0.00046 s⁻¹; the kon was 4.2e+06 M⁻¹ s⁻¹.

B11: Hu01G06-100 (antibody, human IgG1, kappa)
heavy: not shown
light: DIQMTQSPSSLSASVGDRVTITCRTSENLHNYLAWYQQKPGKSPKLLVYDAKTLADGVPSRFSGSGSGTDYTLTISSLQPEDFATYYCQHFWSSPYTFGQGTKLEIKRTVAAPSVFIFPPSDEQLKSGTASVVCLLNNFYPREAKVQWKVDNALQSGNSQESVTEQDSKDSTYSLSSTLTLSKADYEKHKVYACEVTHQGLSSPVTKSFNRGEC
notes: as for B1
In the case of B11, binding was characterised by a dissociation constant (Kd) of 0.15 nM, the koff stood at 0.00062 s⁻¹ and the kon was 4.1e+06 M⁻¹ s⁻¹.

B12: Hu01G06-106 (antibody, human IgG1, kappa)
heavy: not shown
light: DIQMTQSPSSLSASVGDRVTITCRTSENLHNYLAWYQQKPGKSPKLLIYDAKTLADGVPSRFSGSGSGTDYTLTISSLQPEDFATYYCQHFWSSPYTFGQGTKLEIKRTVAAPSVFIFPPSDEQLKSGTASVVCLLNNFYPREAKVQWKVDNALQSGNSQESVTEQDSKDSTYSLSSTLTLSKADYEKHKVYACEVTHQGLSSPVTKSFNRGEC
notes: as for B1
B12 came in with a Kd of 0.16 nM, a koff of 0.0007 s⁻¹ and a kon of 4.3e+06 M⁻¹ s⁻¹.

B13: Hu01G06-101 (antibody, human IgG1, kappa)
heavy: not shown
light: DIQMTQSPSSLSASVGDRVTITCRTSENLHNYLAWYQQKPGKSPKLLVYDAKTLADGVPSRFSGSGSGTDYTLTISSLQPEDFATYYCQHFWSSPYTFGQGTKLEIKRTVAAPSVFIFPPSDEQLKSGTASVVCLLNNFYPREAKVQWKVDNALQSGNSQESVTEQDSKDSTYSLSSTLTLSKADYEKHKVYACEVTHQGLSSPVTKSFNRGEC
notes: as for B1
With B13, binding was characterised by a dissociation constant (Kd) of 0.14 nM, the koff came out at 0.00063 s⁻¹ and the kon came out at 4.4e+06 M⁻¹ s⁻¹.

B14: Hu01G06-110 (antibody, human IgG1, kappa)
heavy: not shown
light: DIQMTQSPSSLSASVGDRVTITCRTSENLHNYLAWYQQKPGKAPKLLIYDAKTLADGVPSRFSGSGSGTDYTLTISSLQPEDFATYYCQHFWSSPYTFGQGTKLEIKRTVAAPSVFIFPPSDEQLKSGTASVVCLLNNFYPREAKVQWKVDNALQSGNSQESVTEQDSKDSTYSLSSTLTLSKADYEKHKVYACEVTHQGLSSPVTKSFNRGEC
notes: as for B1
The molecule B14 gave a Kd of 0.14 nM, a koff of 0.00058 s⁻¹ and a kon of 4.3e+06 M⁻¹ s⁻¹.
